According to patent US20070282095:

Legend:
[1] = target: blood coagulation factor 13 (Fibrogammin P) (UniProt P00488)
fibrinogen = fibrinogen (UniProt P02671)
Sequence of fibrinogen (P02671 20-629, chain 1 of 3): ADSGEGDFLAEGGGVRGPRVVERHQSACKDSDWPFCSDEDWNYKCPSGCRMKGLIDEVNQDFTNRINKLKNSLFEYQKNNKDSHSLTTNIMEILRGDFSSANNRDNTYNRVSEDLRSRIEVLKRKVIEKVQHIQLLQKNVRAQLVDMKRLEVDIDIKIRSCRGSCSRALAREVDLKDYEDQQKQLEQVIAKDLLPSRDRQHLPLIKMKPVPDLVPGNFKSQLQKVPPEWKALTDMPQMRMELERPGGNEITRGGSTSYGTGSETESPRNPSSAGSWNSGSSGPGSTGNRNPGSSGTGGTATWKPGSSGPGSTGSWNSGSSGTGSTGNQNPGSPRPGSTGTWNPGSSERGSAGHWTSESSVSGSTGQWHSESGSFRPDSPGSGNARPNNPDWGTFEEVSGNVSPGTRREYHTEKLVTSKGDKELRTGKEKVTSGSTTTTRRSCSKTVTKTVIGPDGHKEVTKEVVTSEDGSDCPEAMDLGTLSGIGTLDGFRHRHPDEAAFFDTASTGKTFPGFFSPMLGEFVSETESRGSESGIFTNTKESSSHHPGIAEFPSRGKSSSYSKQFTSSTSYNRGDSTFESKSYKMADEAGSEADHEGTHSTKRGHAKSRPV
Sequence of fibrinogen (chain, as listed by the source, chain 2 of 3): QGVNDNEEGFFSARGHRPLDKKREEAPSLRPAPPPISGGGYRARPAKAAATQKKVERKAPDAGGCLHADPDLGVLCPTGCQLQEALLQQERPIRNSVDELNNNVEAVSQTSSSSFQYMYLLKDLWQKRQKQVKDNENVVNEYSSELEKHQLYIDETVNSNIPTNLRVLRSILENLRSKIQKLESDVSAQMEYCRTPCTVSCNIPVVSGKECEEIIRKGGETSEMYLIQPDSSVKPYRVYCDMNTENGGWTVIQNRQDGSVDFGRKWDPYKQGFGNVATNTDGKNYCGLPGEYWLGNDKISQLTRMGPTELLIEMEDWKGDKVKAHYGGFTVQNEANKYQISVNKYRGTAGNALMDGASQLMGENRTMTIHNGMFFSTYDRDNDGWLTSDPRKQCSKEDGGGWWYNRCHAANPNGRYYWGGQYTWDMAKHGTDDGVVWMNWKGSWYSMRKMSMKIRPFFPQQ
Sequence of fibrinogen (chain, as listed by the source, chain 3 of 3): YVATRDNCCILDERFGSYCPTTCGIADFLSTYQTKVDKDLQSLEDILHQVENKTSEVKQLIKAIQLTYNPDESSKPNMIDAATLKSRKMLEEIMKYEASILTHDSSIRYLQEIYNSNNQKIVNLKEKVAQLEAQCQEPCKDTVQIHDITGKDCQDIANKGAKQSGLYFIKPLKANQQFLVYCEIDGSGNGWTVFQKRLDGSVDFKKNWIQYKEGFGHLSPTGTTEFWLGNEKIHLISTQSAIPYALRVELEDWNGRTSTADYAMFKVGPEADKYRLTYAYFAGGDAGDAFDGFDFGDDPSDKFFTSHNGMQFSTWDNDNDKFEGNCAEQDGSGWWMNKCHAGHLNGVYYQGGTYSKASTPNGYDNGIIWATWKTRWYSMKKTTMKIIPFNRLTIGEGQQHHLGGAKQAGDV

Sequence of blood coagulation factor 13 (Fibrogammin P) (P00488 2-732, chain 1 of 2): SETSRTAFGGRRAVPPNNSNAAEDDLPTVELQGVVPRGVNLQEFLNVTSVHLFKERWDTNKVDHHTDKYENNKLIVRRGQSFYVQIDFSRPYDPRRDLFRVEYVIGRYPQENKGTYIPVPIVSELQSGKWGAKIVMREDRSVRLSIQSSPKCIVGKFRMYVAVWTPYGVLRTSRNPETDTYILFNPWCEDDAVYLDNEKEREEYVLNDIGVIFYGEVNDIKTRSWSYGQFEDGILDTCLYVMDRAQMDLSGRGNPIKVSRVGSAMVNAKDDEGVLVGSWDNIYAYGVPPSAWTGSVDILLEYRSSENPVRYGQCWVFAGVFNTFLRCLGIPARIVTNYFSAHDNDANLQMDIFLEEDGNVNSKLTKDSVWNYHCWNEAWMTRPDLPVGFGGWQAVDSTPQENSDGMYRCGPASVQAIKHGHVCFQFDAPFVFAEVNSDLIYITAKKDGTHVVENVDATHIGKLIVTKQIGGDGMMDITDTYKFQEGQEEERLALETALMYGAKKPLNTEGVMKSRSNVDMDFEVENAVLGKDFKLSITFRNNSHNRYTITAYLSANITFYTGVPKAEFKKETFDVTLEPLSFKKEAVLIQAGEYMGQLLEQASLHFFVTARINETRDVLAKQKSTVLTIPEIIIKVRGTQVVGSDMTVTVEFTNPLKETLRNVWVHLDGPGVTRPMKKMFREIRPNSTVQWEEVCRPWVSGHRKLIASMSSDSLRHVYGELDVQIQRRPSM
Sequence of blood coagulation factor 13 (Fibrogammin P) (chain, as listed by the source, chain 2 of 2): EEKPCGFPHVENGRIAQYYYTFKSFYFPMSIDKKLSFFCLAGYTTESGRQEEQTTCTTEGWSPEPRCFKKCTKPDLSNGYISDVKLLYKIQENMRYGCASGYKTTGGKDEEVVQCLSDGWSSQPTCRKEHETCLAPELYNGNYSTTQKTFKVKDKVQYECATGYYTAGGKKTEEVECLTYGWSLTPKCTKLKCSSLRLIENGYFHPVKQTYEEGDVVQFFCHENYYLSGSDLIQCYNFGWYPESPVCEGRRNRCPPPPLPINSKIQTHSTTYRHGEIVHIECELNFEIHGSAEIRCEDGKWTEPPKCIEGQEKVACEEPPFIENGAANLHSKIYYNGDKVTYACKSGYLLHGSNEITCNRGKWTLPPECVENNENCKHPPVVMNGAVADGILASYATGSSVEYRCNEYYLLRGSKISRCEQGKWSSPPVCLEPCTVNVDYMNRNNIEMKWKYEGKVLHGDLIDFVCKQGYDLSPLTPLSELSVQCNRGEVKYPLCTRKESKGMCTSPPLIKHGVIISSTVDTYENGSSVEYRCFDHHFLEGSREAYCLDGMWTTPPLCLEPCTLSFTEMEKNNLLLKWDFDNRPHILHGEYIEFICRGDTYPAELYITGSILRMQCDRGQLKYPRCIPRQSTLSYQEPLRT

## 203A205A99N thrombin (glycine 203 to alanine, serine 205 to alanine, aspartic acid 99 to asparagine in B chain)
[1]
  cleavage of FXIII A chain, SDS-PAGE (method B), 37°C 3 hours: no band of an A chain-activated product of FXIII was observed

## 203A205A thrombin (glycine 203 to alanine, serine 205 to alanine in B chain)
[1]
  cleavage of FXIII A chain, SDS-PAGE (method B), 37°C: No band of A chain-activated product of FXIII was observed even in lane 6 which was obtained after 3 hour-incubation

## 203A205G thrombin (glycine at position 203 in B chain substituted by alanine, serine at position 205 substituted by glycine)
[1]
  cleavage of FXIII A chain, SDS-PAGE (method B), 37°C: No band of an A chain-activated product of FXIII was observed in the sample (lane 6) which was obtained after 3-hour incubation
fibrinogen
  clot formation from Fbgn (method C), 37°C 3 hours: no clot formation was observed

## 203A thrombin (glycine at position 203 in B chain substituted by alanine)
[1]
  cleavage of FXIII A chain, SDS-PAGE (method B), 37°C: The A chain of FXIII was observed to provide a cleaved product 30 minutes later, and more than half of the A chain was cleaved after three hours
fibrinogen
  clot formation from Fbgn (method C), 37°C 3 hours: a clot was formed after three hours

## 205A43S thrombin (serine 205 to alanine, histidine 43 to serine in B chain)
[1]
  cleavage of FXIII A chain, SDS-PAGE (method B), 37°C 3 hours: no band of A chain-activated product of FXIII was observed

## 205A99N thrombin (serine 205 to alanine, aspartic acid 99 to asparagine in B chain)
[1]
  cleavage of FXIII A chain, SDS-PAGE (method B), 37°C 3 hours: no band of an A chain-activated product of FXIII was observed

## 205A thrombin (serine at position 205 in B chain substituted by alanine)
[1]
  cleavage of FXIII A chain, SDS-PAGE (method B), 37°C: Even 3 hours later, no A chain of activated FXIII was observed as shown in lane 8

## 205G43A thrombin (serine 205 to glycine, histidine 43 to alanine in B chain)
[1]
  cleavage of FXIII A chain, SDS-PAGE (method B), 37°C 3 hours: no band of an A chain-activated product of FXIII was observed

## 205T thrombin (serine at position 205 in B chain substituted by threonine)
[1]
  cleavage of FXIII A chain, SDS-PAGE (method B), 37°C 3 hours: A chains of almost all FXIII were activated in a similar manner as that of the wild-type thrombin, and bands of cleaved FXIII were observed
